Measurements published in PMC3787792.

Legend:
Assay in all cases: SEC + other: SDS-PAGE
[1] = target: IgG1-Fc variant Q438K (soluble) (human)
[2] = target: IgG1-Fc variant Q418L (soluble) (human)
[3] = target: IgG1-Fc variant S354P (soluble) (human)
[4] = target: IgG1-Fc variant S424T (soluble) (human)
[5] = target: IgG1-Fc variant K360Q (soluble) (human)
[6] = target: IgG1-Fc variant N421D (soluble) (human)
[7] = target: IgG1-Fc variant S400F (soluble) (human)
[8] = target: IgG1-Fc variant K392R (soluble) (human)
[9] = target: IgG1-Fc variant K360E (soluble) (human)
[10] = target: IgG1-Fc variant Q347E (soluble) (human)
[11] = target: IgG1-Fc variant Q438R (soluble) (human)
[12] = target: IgG1-Fc variant T437I (soluble) (human)

Q: Which stoichiometry N [1] does the source give for “IgG1-Fc variant Q438K (soluble) (domain or fragment)” here?
A: 2

Q: How did the stoichiometry N [2] turn out when “IgG1-Fc variant Q418L (soluble) (domain or fragment)” was run?
A: 2

Q: For “IgG1-Fc variant S354P (soluble) (domain or fragment)”, which stoichiometry N [3] is on record?
A: 2

Q: “IgG1-Fc variant S424T (soluble) (domain or fragment)” was tested. Which stoichiometry N [4] did it give?
A: 2

Q: For “IgG1-Fc variant K360Q (soluble) (domain or fragment)”, which stoichiometry N [5] is on record?
A: 2

Q: With “IgG1-Fc variant N421D (soluble) (domain or fragment)” as the substance, how does the stoichiometry N [6] read?
A: 2

Q: With “IgG1-Fc variant S400F (soluble) (domain or fragment)” as the substance, how does the stoichiometry N [7] read?
A: 2

Q: With “IgG1-Fc variant K392R (soluble) (domain or fragment)” as the substance, how does the stoichiometry N [8] read?
A: 2

Q: With “IgG1-Fc variant K360E (soluble) (domain or fragment)” as the substance, how does the stoichiometry N [9] read?
A: 2

Q: For “IgG1-Fc variant Q347E (soluble) (domain or fragment)”, which stoichiometry N [10] is on record?
A: 2

Q: “IgG1-Fc variant Q438R (soluble) (domain or fragment)” was tested. Which stoichiometry N [11] did it give?
A: 2

Q: How did the stoichiometry N [12] turn out when “IgG1-Fc variant T437I (soluble) (domain or fragment)” was run?
A: 2
